Assay results published in article PMC12956587.

Target: WIN332 SOSIP Env trimer (HIV-1 strain BG505)
Assay: SEC

Substance: WIN332 SOSIP Env trimer (complex)
- stoichiometry N: 3
